Data from article PMC5469345, “High Sensitivity Determination of TNF-α for Early Diagnosis of Neonatal Infections with a Novel and Reusable Electrochemical Sensor”.

Molecular target: TNF-α (UniProt P01375 77-233)
Test: electrochemical sensor (CV/EIS/DPV), displacement of aptamer from capture probe; aptamer pre-hybridized to capture probe T1 on gold electrode; 0.01 M PBS, 37 °C; TNF-α incubation in 0.01 M PBS pH 7.4, 37 °C, 2 h (1 h optimal); binding buffer listed as 10 mM Tris-HCl pH 7.4, 10 mM KCl, 10 mM MgCl2; DPV in 10x PBS
Details: protein: commercial; chain copies: 3; single strand; on the sensor pre-hybridized to thiolated capture probe T1 (S1), from which TNF-α displaces it

Chain of TNF-α (P01375 77-233): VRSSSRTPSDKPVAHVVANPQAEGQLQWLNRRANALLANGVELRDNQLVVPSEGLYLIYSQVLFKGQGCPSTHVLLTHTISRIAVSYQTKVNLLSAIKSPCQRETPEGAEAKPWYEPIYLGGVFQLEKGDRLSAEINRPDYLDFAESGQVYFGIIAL

TTTTTTTTTTTTTTTTGGTGGATGGCGCAGTCGGCGACAA (ssDNA) [TNF-α aptamer (T2)]: binds.
